Results taken from US7435549 (MICROMET, dated 2008).

Key:
[1] = target: T1, CD80-VD4.5VK8 scFv(VH/VL) construct with short (Gly4Ser1)1 linker (human, UniProt P33681 35-242); assay: flow cytometry on 17-1A-transfected CHO cells, anti-CD80 detection
T1 construct: extracellular domain; Tested as CHO culture supernatant; also called bifunctional CD80-VD4.5VK8-scFv-construct; pEF-DHFR+CTI+CD80+scFv VD4.5VK8
Procedure: FIG. 9.1: Binding studies of 17-1A specific bifunctional CD80-scFv-constructs on 17-1A transfected (filled lines) and untransfected CHO cells (broken lines) detected by flow cytometry. 5 ×10^5 cells were incubated in 50 μl undiluted cell-culture supernatant containing the corresponding bifunctional construct. Bound bifunctional CD80-scFv-constructs were detected by a monoclonal anti-CD80 antibody (Immunotech. Cat. No.: 1449) diluted 1:20 in 50 μl PBS. Incubation conditions were the same as described in FIG. 8.5. Bound CD80-antibody was finally detected by a fluorescein conjugated polyclonal Goat Anti-Mouse IgG+IgM (H+L) antibody diluted 1:100 in PBS. Incubation was again carried out for 30 minutes on ice. For the fixation of fluorescein-labeled cells 1% paraformaldehyd in PBS was used. As first negative control untransfected CHO was used. […] Cells were analysed by flow cytometry on a FACS scan (Becton Dickenson).
For this purpose adherent untransfected and 17-1A-transfected CHO-cells were detached using PBS containing 0,05% Trypsine, respectively. […] Bound bifunctional CD80-scFv-constructs were detected by a monoclonal anti-CD80 antibody (Immunotech. Cat. No: 1449) diluted 1:20 in 50 µl PBS. […] Bound CD80-antibody was finally detected by a fluorescein conjugated polyclonal Goat Anti-Mouse IgG+IgM (H+L) antibody diluted 1:100 in PBS. […]

[2] = target: T2, bifunctional CD80-anti-17-1A scFv construct, clone 3-1 (human, UniProt P33681 35-242); assay: flow cytometry on 17-1A-transfected CHO cells, undiluted supernatant, anti-CD80 detection
T2 construct: extracellular domain; CHO culture supernatant; also called pEF-DHFR+CTI+CD80+scFv 17-1A clone 3-1; CD80-scFv-construct 3-1
Procedure: (§1) FIG. 9.1: Binding studies of 17-1A specific bifunctional CD80-scFv-constructs on 17-1A transfected (filled lines) and untransfected CHO cells (broken lines) detected by flow cytometry. 5 ×10^5 cells were incubated in 50 μl undiluted cell-culture supernatant containing the corresponding bifunctional construct. Bound bifunctional CD80-scFv-constructs were detected by a monoclonal anti-CD80 antibody (Immunotech. Cat. No.: 1449) diluted 1:20 in 50 μl PBS. Incubation conditions were the same as described in FIG. 8.5. Bound CD80-antibody was finally detected by a fluorescein conjugated polyclonal Goat Anti-Mouse IgG+IgM (H+L) antibody diluted 1:100 in PBS. Incubation was again carried out for 30 minutes on ice. For the fixation of fluorescein-labeled cells 1% paraformaldehyd in PBS was used. As first negative control untransfected CHO was used. The second negative control contained 17-1A-transfected cells that were incubated with PBS instead of bifunctional CD80-scFv-constructs. Cells were analysed by flow cytometry on a FACS scan (Becton Dickenson).
(§2) For this purpose adherent untransfected and 17-1A-transfected CHO-cells were detached using PBS containing 0,05% Trypsine, respectively. 5 ×10^5 cells were incubated for 30 minutes on ice in 50 µl culture supernatant containing the corresponding bifunctional construct undiluted (FIG. 9.1). Bound bifunctional CD80-scFv-constructs were detected by a monoclonal anti-CD80 antibody (Immunotech. Cat. No: 1449) diluted 1:20 in 50 µl PBS. Incubation conditions were the same as above. Bound CD80-antibody was finally detected by a fluorescein conjugated polyclonal Goat Anti-Mouse IgG+IgM (H+L) antibody diluted 1:100 in PBS. Incubation was again carried out for 30 minutes on ice. For the fixation of fluorescein-labeled cells 1% paraformaldehyd in PBS was used.

[3] = target: T3, bifunctional CD80-anti-17-1A scFv construct, clone 3-5 (human, UniProt P33681 35-242); assay: as above
T3 construct: extracellular domain; CHO culture supernatant; also called pEF-DHFR+CTI+CD80+scFv 17-1A clone 3-5; CD80-scFv-construct 3-5
Procedure: as §1, §2

[4] = target: T4, bifunctional CD80-anti-17-1A scFv construct, clone 4-1 (human, UniProt P33681 35-242); assay: as above
T4 construct: extracellular domain; CHO culture supernatant; also called pEF-DHFR+CTI+CD80+scFv 17-1A clone 4-1; CD80-scFv-construct 4-1
Procedure: as §1, §2

[5] = target: T5, bifunctional CD80-anti-17-1A scFv construct, clone 4-4 (human, UniProt P33681 35-242); assay: as above
T5 construct: extracellular domain; CHO culture supernatant; also called pEF-DHFR+CTI+CD80+scFv 17-1A clone 4-4; CD80-scFv-construct 4-4
Procedure: as §1, §2

[6] = target: T6, bifunctional CD80-anti-17-1A scFv construct, clone 4-7 (human, UniProt P33681 35-242); assay: as above
T6 construct: extracellular domain; CHO culture supernatant; also called pEFDHFR+CTI+CD80+scFv anti 17-1A 4-7; CD80-scFv-construct 4-7
Procedure: as §1, §2

[7] = target: T7, bifunctional CD80-anti-17-1A scFv construct, clone 5-3 (human, UniProt P33681 35-242); assay: as above
T7 construct: extracellular domain; CHO culture supernatant; also called pEFDHFR+CTI+CD80+scFv anti 17-1A 5-3; CD80-scFv-construct 5-3
Procedure: as §1, §2

[8] = target: T8, bifunctional CD80-anti-17-1A scFv construct, clone 5-10 (human, UniProt P33681 35-242); assay: as above
T8 construct: extracellular domain; CHO culture supernatant; also called pEHDFR+CTI+CD80+scFv anti 17-1A 5-10; CD80-scFv-construct 5-10
Procedure: as §1, §2

[9] = target: T9, bifunctional CD80-anti-17-1A scFv construct, clone 5-13 (human, UniProt P33681 35-242); assay: as above
T9 construct: extracellular domain; CHO culture supernatant; also called pEF-DHFR+CTI+CD80+scFv 17-1A clone 5-13; CD80-scFv-construct 5-13
Procedure: as §1, §2

binding result [2]: binds
binding result [3]: binds
binding result [4]: binds
binding result [5]: binds
binding result [6]: binds
binding result [7]: binds
binding result [8]: binds
binding result [9]: binds
B1: transmembrane 17-1A antigen (complete amino acid sequence, GA733-2) on transfected CHO cells (other, UniProt P16422 24-314, looked up)
chain: QEECVCENYKLAVNCFVNNNRQCQCTSVGAQNTVICSKLAAKCLVMKAEMNGSKLGRRAKPEGALQNNDGLYDPDCDESGLFKAKQCNGTSMCWCVNTAGVRRTDKDTEITCSERVRTYWIIIELKHKAREKPYDSKSLRTALQKEITTRYQLDPKFITSILYENNVITIDLVQNSSQKTQNDVDIADVAYYFEKDVKGESLFHSKKMDLTVNGEQLDLDPGQTLIYYVDEKAPEFSMQGLKAGVIAVIVVVVIAVVAGIVVLVISRKKRMAKYEKAEIKEMGEMHRELNA
notes: whole, on cells; also called 17-1A-transfected CHO-cells
binding result [1]: no binding (tested: undiluted culture supernatant)
